Experimental data published in patent US20220347309A1 (ADC THERAPEUTICS, published 2022).

Biological target: T1, CD25 on human anaplastic large cell lymphoma Karpas-299 cells (human, UniProt P01589 22-272)
T1 construct: whole, on cells; Endogenous antigen on the cell line
T1 sequence (looked up): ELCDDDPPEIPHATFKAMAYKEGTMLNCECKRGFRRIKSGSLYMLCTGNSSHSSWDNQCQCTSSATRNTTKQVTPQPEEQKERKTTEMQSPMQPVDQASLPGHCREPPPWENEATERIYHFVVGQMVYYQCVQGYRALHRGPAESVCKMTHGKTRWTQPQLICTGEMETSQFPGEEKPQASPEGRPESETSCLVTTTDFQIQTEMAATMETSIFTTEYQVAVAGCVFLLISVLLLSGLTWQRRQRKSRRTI
Test: flow cytometry, serial dilution of antibody on Karpas-299 wt, ADCR and PBDR cells, Alexa Fluor 488 anti-human Fc secondary
Description: The cells were then washed and incubated with a F(ab′)2-Goat anti-Human IgG Fc Secondary Antibody conjugated to Alexa Fluor 488. After incubation for 1 hour on ice in the dark the cells were washed and run on a Fortessa X20 flow cytometer, and the mean fluorescence intensity (MFI) determined using the B530/30 laser/filter.

B1: HuMax-TAC mAb (antibody, V domains shown)
VH: QVQLVQSGAEVKKPGSSVKVSCKASGGTFSRYIINWVRQAPGQGLEWMGRIIPILGVENYAQKFQGRVTITADKSTSTAYMELSSLRSEDTAVYYCARKDWFDYWGQGTLVTVSS
VL: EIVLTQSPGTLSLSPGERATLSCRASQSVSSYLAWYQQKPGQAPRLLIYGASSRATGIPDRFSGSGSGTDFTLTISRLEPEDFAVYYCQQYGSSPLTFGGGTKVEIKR
notes: also called AB12; CD25 antibody
B1: binds.
